Broadly, the IC50 is the concentration that inhibits the measured activity by half.

The target of assay [1] is T1, tau antigens from human AD brain, S1(p) fraction (human, UniProt P10636 2-758, phosphorylated; sites not listed for this fraction).
T1 construct: Brain-derived; isoform mix; also called AD-S1(p); AD s1(p)
Briefly: fluid phase MSD ELISA: inhibition of tau antigen capture. How it is done:
B: The samples were incubated on MSD plates coated with AD-P3 (1 μg/ml) for 2 hours followed by wash and detection of captured Tau antigens using sulfo tagged anti-total TauG antibodies.

Assay [2] deals with T2, pathological hyperphosphorylated tau from human Alzheimer's disease brain, sarkosyl-insoluble P3 fraction (human, UniProt P10636 2-758, hyperphosphorylated; phosphoserine at 396 (other sites not listed)).
T2 construct: Brain-derived mixture of tau isoforms (bands at 54, 64, 69 and 74 kDa); also called AD-P3; AD P3
Briefly: MSD ELISA on immobilised P3 tau; ratio of binding to AD over healthy control at saturation.

T1 sequence (P10636 other isoform, or with tags, fused parts or gaps limits assumed): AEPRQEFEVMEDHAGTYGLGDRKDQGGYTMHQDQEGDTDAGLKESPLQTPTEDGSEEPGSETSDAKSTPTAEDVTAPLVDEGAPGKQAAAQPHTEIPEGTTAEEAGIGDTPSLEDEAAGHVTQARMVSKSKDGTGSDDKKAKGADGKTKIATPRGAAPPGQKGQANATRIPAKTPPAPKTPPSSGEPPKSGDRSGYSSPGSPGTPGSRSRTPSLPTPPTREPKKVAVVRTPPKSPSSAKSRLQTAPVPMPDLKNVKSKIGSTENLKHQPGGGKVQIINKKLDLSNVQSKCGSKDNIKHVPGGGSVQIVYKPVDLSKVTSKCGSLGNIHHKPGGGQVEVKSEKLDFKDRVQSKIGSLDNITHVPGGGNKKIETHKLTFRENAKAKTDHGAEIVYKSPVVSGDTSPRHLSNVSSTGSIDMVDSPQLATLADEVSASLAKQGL
T2 sequence (P10636 other isoform, or with tags, fused parts or gaps limits assumed): as above

B1: Antibody D1.2 (antibody, mouse IgG2b, kappa, V domains shown)
VH: QVQLQQSGAELVRPGASVTLSCKASGNTFTDYEIHWVKQTPVHGLEWIGAIDPETGNTAYNQKFKGKARLTADKSSSTAYMELRSLTSEDSAVYYCTRSRGFDYWGQGTTLTVSS
VL: DVMMTQTPLSLPVSLGDQASISCRSSQSLVHSNGNTYLHWHLQKPGQSPKFLIYKVSNRFSGVPDRFSGSGSGTDFTLKISRVEAEDLGVYFCSQSTHVPFTFGSGTKLEIKR
notes: Mouse monoclonal; also called mD1.2; mouse D1.2
Molecule B1 showed a half-inhibitory concentration (IC50) in assay [1] of 503 nM.

B2: IPN002 (antibody, V domains shown)
VH: EVHLVESGGALVKPGGSLKLSCAASGFSFSKYGMSWVRQTPDKRLEWVATISSSGSRTYYPDSVKGQFTISRDNAKNTLYLQMSSLKSEDTAMYYCSISWDGAMDYWGQGTSVTVSS
VL: DVLMTQTPLSLPVSLGDQASISCKSSQSIVHSNGNTYLEWYLQKPGQSPKLLVYKVSNRFSGVPDRFSGSGSGTDFTLKISRVEAEDLGTYYCFQGSLVPWAFGGGTKLEIK
B2: the AD/ctrl in assay [2] is 3 fold.

B3: Antibody C10-2 (murine) (antibody, mouse IgG1, kappa, V domains shown)
VH: QVQLQQSDAELVKPGASVKISCKASGYTFTDRTIHWVKQRPEQGLEWIGYIYPGDGSTKYNENFKGKATLTADKSSSTAYMQLNSLTSEDSAVYFCARRGAMDYWGQGTSVTVSS
VL: DVQMIQSPSSLSASLGDIVTMTCQASQGTSINLNWFQQKPGKAPKLLIYGASNLEDGVPSRFSGSRYGTDFTLTISSLEDEDMATYFCLQHTYLPFTFGSGTKLEIKR
notes: Mouse monoclonal from hybridoma; also called mC10-2; mouse C10-2
In assay [1], B3 returned an IC50 of 11 nM.

Values taken from patent publication US20170015738A1 (H LUNDBECK A S, published 2017).
